According to patent US20240239890A1 (Chugai, published 2024):

What was measured:
[1] = target: T1, Human RNF43 ECD with Fc region fused on its C-terminus (human); assay: competition ELISA on coated RNF43-Fc; first antibody unlabelled at 10x its EC50, second (reference) antibody biotinylated RNN0242nn at its EC50
T1 construct: also called RNF43-Fc
T1 chain: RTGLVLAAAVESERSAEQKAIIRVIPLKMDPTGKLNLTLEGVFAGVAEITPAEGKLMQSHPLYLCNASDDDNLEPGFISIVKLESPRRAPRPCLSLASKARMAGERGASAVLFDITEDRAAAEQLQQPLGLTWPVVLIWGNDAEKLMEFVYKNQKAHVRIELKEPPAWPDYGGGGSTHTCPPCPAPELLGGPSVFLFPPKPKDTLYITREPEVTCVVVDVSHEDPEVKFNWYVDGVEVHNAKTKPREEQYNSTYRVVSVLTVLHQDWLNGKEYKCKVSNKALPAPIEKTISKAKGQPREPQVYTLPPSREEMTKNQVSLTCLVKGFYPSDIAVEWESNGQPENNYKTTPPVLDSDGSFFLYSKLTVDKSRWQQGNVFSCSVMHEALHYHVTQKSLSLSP
Method: (§1) EC50 concentration for the binding of each anti-RNF43 monospecific antibody to RNF43-Fc (described in Example 2) was first determined by ELISA assay, using the biotinylated antibodies. In brief, RNF43-Fc at 5 micro g/mL or 1 micro g/mL was coated on Maxisorp plate (NUNC) at 4 degrees C. overnight. The coated plate was then washed with PBS-T, followed by blocking with Blocking One solution (Nacalai Tesque) for 2 hours at room temperature. Serially diluted, biotinylated anti-RNF43 monospecific antibody was then added and incubated for 1 hour at room temperature. After washing with PBS-T, StAv-HRP (PIERCE) was added and incubated for 1 hour at room temperature. After washing with PBS-T, ABTS Peroxidase substrate (SeraCare Life Sciences) was added and signal intensity was measured using Multiskan™ GO Microplate Spectrophotometer. EC50 concentration for the binding of the anti-RNF43 monospecific antibody to RNF43-Fc was calculated using Non-linear regression 4-parameter fit. The normalized absorbance at 405 nm/570 nm measured when EC50 concentration of anti-RNF43 antibodies was applied is denoted as AO.
(§2) To evaluate binding competition between the anti-RNF43 monospecific antibodies, ELISA assay with similar setting was conducted. RNF43-Fc was first coated in Maxisorp plate overnight. […] After washing with PBS-T, ABTS Peroxidase substrate was added and signal intensity was measured using Multiskan™ GO Microplate Spectrophotometer. The normalized absorbance at 405 nm/570 nm is denoted as A.

[2] = target: T1, Human RNF43 ECD with Fc region fused on …; assay: competition ELISA on coated RNF43-Fc; first antibody unlabelled at 10x its EC50, second (reference) antibody biotinylated RNN0246jj at its EC50
Method: as §1, §2

[3] = target: T1, Human RNF43 ECD with Fc region fused on …; assay: competition ELISA on coated RNF43-Fc; first antibody unlabelled at 10x its EC50, second (reference) antibody biotinylated RNN0193jj at its EC50
Method: as §1, §2

[4] = target: T1, Human RNF43 ECD with Fc region fused on …; assay: competition ELISA on coated RNF43-Fc; first antibody unlabelled at 10x its EC50, second (reference) antibody biotinylated RNN0192nn at its EC50
Method: as §1, §2

[5] = target: T1, Human RNF43 ECD with Fc region fused on …; assay: competition ELISA on coated RNF43-Fc; first antibody unlabelled at 10x its EC50, second (reference) antibody biotinylated RNN0187jj at its EC50
Method: as §1, §2

[6] = target: T1, Human RNF43 ECD with Fc region fused on …; assay: competition ELISA on coated RNF43-Fc; first antibody unlabelled at 10x its EC50, second (reference) antibody biotinylated RNN0207ii at its EC50
Method: as §1, §2

Binder	binding inhibition (%) [1]	binding inhibition (%) [2]	binding inhibition (%) [3]	binding inhibition (%) [4]	binding inhibition (%) [5]	binding inhibition (%) [6]
RNN0193jj with rabbit constant region (antibody) heavy: QSLEESGGDLVKPGASLTLTCTASGFSFSNNYWICWVRQAPGKGPEWIACIYTGDGDTDYASWAKGRFTISKTSSTTVTLQMTSLTAADTATYFCAREAGTVDGVWNYVFNLWGPGTLVTVSSGQPKAPSVFPLAPCCGDTPSSTVTLGCLVKGYLPEPVTVTWNSGTLTNGVRTFPSVRQSSGLYSLSSVVSVTSSSQPVTCNVAHPATNTKVDKTVAPSTCSKPMCPPPELLGGPSVFIFPPKPKDTLMISRTPEVTCVVVDVSQDDPEVQFTWYINNEQVRTARPPLREQQFNSTIRVVSTLPIAHQDWLRGKEFKCKVHNKALPAPIEKTISKARGQPLEPKVYTMGPPREELSSRSVSLTCMINGFYPSDISVEWEKNGKAEDNYKTTPTVLDSDGSYFLYSKLSVPTSEWQRGDVFTCSVMHEALHNHYTQKSISRSPGK light: AQVLTQTPSPVSAAVGGTVTISCQSSQSVYNDNLAWFQQKPGQPPKLLIYDASTLASGVPSRFKGSGSGTQFTLTISKLQCDDAATYYCQGVYIGHIFTFGGGTKVEIKRDPVAPTVLIFPPAADQVATGTVTIVCVANKYFPDVTVTWEVDGTTQTTGIENSKTPQNSADCTYNLSSTLTLTSTQYNSHKEYTCKVTQGTTSVVQSFNRGDC	21.3%	5.04%	50.2%	-15.2%	3.21%	-1.42%
RNN0246jj with rabbit constant region (antibody) heavy: QSVEESGGRLVTPDETLTLTCTVSGFSLNNYHMIWVRQAPGEGLEYIGFINTGGSAYYANWAKGRFTISKTSTTVDLKITSPTTEDTATYFCASVSWRTDYSFELWGPGTLVTVSSGQPKAPSVFPLAPCCGDTPSSTVTLGCLVKGYLPEPVTVTWNSGTLTNGVRTFPSVRQSSGLYSLSSVVSVTSSSQPVTCNVAHPATNTKVDKTVAPSTCSKPMCPPPELLGGPSVFIFPPKPKDTLMISRTPEVTCVVVDVSQDDPEVQFTWYINNEQVRTARPPLREQQFNSTIRVVSTLPIAHQDWLRGKEFKCKVHNKALPAPIEKTISKARGQPLEPKVYTMGPPREELSSRSVSLTCMINGFYPSDISVEWEKNGKAEDNYKTTPTVLDSDGSYFLYSKLSVPTSEWQRGDVFTCSVMHEALHNHYTQKSISRSPGK light: AQVLTQTPSPVSAAVGGTVTISCQASQSVYANNRLAWFQQKPGQPPKLLIYSASTLASGVPSRFKGSGSGTQFTLTISGVQCDDAATYYCAGAYTGNIYTFGGGTKVEIKRDPVAPTVLIFPPAADQVATGTVTIVCVANKYFPDVTVTWEVDGTTQTTGIENSKTPQNSADCTYNLSSTLTLTSTQYNSHKEYTCKVTQGTTSVVQSFNRGDC	22.6%	29.8%	1.17%	-0.13%	12.6%	-0.14%
RNN0242nn with rabbit constant region (antibody) heavy: QQQLEEYGGDLVQPEGSLTLTCKASGLDFSSSYWMCWVRQAPGKGLEWIACIYTGSSGSTSYASWAKGRFTISKTSSTTVTLQMTSLTAADTATYFCARDYDYTAYAYGIMSLWGPGTLVTVSSGQPKAPSVFPLAPCCGDTPSSTVTLGCLVKGYLPEPVTVTWNSGTLTNGVRTFPSVRQSSGLYSLSSVVSVTSSSQPVTCNVAHPATNTKVDKTVAPSTCSKPMCPPPELLGGPSVFIFPPKPKDTLMISRTPEVTCVVVDVSQDDPEVQFTWYINNEQVRTARPPLREQQFNSTIRVVSTLPIAHQDWLRGKEFKCKVHNKALPAPIEKTISKARGQPLEPKVYTMGPPREELSSRSVSLTCMINGFYPSDISVEWEKNGKAEDNYKTTPTVLDSDGSYFLYSKLSVPTSEWQRGDVFTCSVMHEALHNHYTQKSISRSPGK light: AEIVMTQTPSSKSAAVGDTVTIKCQASQSITSYLSWYQQKPGQPPKLLIYRASTLASGVPSRFKGSGSGTQFTLTISDLECADAATYYCQSNYGSYSTNYGVTFGGGTKVEIKRDPVAPTVLIFPPAADQVATGTVTIVCVANKYFPDVTVTWEVDGTTQTTGIENSKTPQNSADCTYNLSSTLTLTSTQYNSHKEYTCKVTQGTTSVVQSFNRGDC	86.8%	74.7%	12.6%	9.66%	11.4%	1.62%
